Results published in publication PMC10439915, “Development of an interfering peptide M1-20 with potent anti-cancer effects by targeting FOXM1” (Cell Death & Disease, 2023).
One block for each molecule: values may come before it. Non-standard residues stand in square brackets, D forms with d. No end group written: not given here.

Assays:
FOXM1_1-138 [1] = target: T1, FOXM1_1-138 (Homo sapiens, UniProt Q08050); experiment: Microscale thermophoresis binding of peptide to GFP-labeled FOXM1_1-138; details: MST, Monolith NT.115, peptide 0.030 to 1000 μM in PBS with 0.05% Tween-20, 25 °C, mean of three independent measurements
T1 construct: The cDNA of FOXM1(1-138aa) was PCR amplified from pCMV-FOXM1 plasmid; EGFP (C); His (pET-32a vector; Ni-Sepharose purification); made in house; host or cells: E. coli Rosetta/DE3
T1 sequence (Q08050 1-138 isoform Q08050-2): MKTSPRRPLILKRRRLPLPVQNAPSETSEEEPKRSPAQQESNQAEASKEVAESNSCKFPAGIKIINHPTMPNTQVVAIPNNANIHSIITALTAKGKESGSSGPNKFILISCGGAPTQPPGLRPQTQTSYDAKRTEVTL
Experimental: Measurements were performed by Monolith NT.115 instrument (NanoTemper). The data were analyzed by MO. Affinity Analysis v2.3 NT software (NanoTemper) to determine interaction parameters. Details were described in the supplemental materials and methods.
Fig. 2 The screening of the FOXM1-interacting peptide M1-20. A The diagram of peptide array (P1-P9) in which peptides (20-mer) covering FOXM1_689-748 with a shifting window of five residues were conjugated to the cell-penetrating peptide TAT and produced by solid-phase peptide synthesis. […] Biotin and FOXM1 proteins in samples were detected by Western Blotting with certain antibodies. […] The absorbance at 450 nm and the relative cell viability in each well was calculated. […] GST-tag and Biotin-tag were detected by Western Blotting with certain antibodies. […] E The curve represented the quantification of binding affinity between GFP-labeled FOXM1_1-138 and P5 or P5mut by Microscale Thermophoresis (MST, Monolith NT.115, NanoTemper). Data points indicated the fraction of FOXM1_1-138-bound peptide (ΔNormal/Amplitude) at different concentrations, and curves indicated the calculated fits. […] F The biotin signals indicated the peptide stability of P5 and M1-20 in HEK293T cell lysates analyzed by Western Blotting. The levels of peptide were quantified by Image J software and graphed with GraphPad Prism 9 (n = 3). […]

endogenous FOXM1 = target: T2, endogenous FOXM1 (Homo sapiens, UniProt Q08050); experiment: Biotin-peptide pull-down of endogenous FOXM1 from MDA-MB-231 cell lysates; assay type: binding; details: biotin-labeled peptide, MDA-MB-231 cell lysates (500 μg), Streptavidin Agarose Resin, Western Blotting
T2 construct: endogenous in cells; host or cells: MDA-MB-231 cell lysates
T2 sequence (Q08050 1-763): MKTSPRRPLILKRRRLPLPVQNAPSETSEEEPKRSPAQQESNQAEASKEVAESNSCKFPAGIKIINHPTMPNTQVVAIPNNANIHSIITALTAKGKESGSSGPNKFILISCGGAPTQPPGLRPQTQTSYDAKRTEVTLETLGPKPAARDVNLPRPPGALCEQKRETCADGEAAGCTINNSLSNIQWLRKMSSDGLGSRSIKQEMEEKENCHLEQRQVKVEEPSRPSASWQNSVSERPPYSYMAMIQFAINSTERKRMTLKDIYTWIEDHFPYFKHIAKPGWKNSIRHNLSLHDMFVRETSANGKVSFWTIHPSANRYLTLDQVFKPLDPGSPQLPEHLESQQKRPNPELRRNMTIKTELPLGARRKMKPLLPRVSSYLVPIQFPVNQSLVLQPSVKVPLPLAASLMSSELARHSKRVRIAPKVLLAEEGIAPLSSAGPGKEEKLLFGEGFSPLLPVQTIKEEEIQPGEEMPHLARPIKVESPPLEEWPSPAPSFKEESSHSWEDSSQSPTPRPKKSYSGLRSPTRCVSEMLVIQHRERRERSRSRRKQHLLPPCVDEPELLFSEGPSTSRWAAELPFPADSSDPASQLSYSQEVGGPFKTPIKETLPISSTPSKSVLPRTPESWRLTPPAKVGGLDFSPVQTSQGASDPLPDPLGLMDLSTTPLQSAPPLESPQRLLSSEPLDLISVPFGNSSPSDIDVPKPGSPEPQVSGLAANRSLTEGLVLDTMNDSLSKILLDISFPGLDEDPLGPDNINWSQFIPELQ
Experimental: (§1) Fig. 2 The screening of the FOXM1-interacting peptide M1-20. A The diagram of peptide array (P1-P9) in which peptides (20-mer) covering FOXM1_689-748 with a shifting window of five residues were conjugated to the cell-penetrating peptide TAT and produced by solid-phase peptide synthesis. The P1-P9 peptides were biotin-labeled respectively and added in MDA-MB-231 cell lysates (500 μg) which were incubated with Streptavidin Agarose Resin to pull down biotin-peptide/protein complexes. Biotin and FOXM1 proteins in samples were detected by Western Blotting with certain antibodies. 10% of cell lysates (50 μg) were used as input controls. […] The absorbance at 450 nm and the relative cell viability in each well was calculated. […] GST-tag and Biotin-tag were detected by Western Blotting with certain antibodies. […] E The curve represented the quantification of binding affinity between GFP-labeled FOXM1_1-138 and P5 or P5mut by Microscale Thermophoresis (MST, Monolith NT.115, NanoTemper). Data points indicated the fraction of FOXM1_1-138-bound peptide (ΔNormal/Amplitude) at different concentrations, and curves indicated the calculated fits. […] F The biotin signals indicated the peptide stability of P5 and M1-20 in HEK293T cell lysates analyzed by Western Blotting. The levels of peptide were quantified by Image J software and graphed with GraphPad Prism 9 (n = 3). […]

MDA-MB-231 cells = experiment: CCK-8 cell viability; assay type: cell-based, human; details: 0, 10, 20, 40, 80, 160 µM, 36 h, n = 3
Experimental: as §1

FOXM1_1-138 [2] = target: T1, FOXM1_1-138; experiment: Biotin-peptide pull-down of recombinant FOXM1_1-138; assay type: binding; details: biotin-labeled peptide (10 μg), recombinant protein (50 μg), Streptavidin Agarose Resin
Experimental: as §1

His-FOXM1 = target: T3, His-FOXM1 (UniProt Q08050-2 1-748); experiment: EMSA; plus M1-20 peptide (5 and 10 uM in legend; 0.5, 1 and 2 uM in Suppl. Methods); DNA binding not disrupted; 20 mM Tris-Cl pH 7.6, 50 mM KCl, 10% glycerol, 0.5 mM EDTA, 0.2 mM DTT, 30 min on ice; 4% native PAGE in 0.5x TBE; details: protein: recombinant; tags: His; label: 5'-FAM on forward strand (hot); blunt
T3 sequence: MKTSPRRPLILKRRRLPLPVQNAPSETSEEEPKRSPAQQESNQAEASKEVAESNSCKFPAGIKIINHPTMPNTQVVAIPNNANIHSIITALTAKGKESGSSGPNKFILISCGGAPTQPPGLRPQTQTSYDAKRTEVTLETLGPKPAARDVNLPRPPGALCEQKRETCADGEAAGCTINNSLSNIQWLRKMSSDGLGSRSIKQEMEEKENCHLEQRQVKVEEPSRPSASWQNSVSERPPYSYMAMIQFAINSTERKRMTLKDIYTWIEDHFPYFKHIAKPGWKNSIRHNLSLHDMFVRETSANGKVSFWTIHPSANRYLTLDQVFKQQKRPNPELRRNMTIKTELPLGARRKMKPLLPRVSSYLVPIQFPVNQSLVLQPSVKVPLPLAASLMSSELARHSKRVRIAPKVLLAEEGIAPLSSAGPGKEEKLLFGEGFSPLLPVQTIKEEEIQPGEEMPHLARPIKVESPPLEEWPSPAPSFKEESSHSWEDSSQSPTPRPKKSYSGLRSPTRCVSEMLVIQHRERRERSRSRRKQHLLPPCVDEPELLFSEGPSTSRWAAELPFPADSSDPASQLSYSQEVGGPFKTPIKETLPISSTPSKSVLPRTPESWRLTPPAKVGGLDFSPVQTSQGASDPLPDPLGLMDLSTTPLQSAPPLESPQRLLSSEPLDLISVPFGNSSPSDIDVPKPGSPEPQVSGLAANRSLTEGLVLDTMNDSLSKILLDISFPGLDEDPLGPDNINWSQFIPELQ

[3] = target: T4, GFP-labeled FOXM1_(1-138) (human, UniProt Q08050-3 1-138); experiment: MST; GFP-labeled FOXM1(1-138) with peptide at different concentrations; Monolith NT.115 (NanoTemper), MO.Affinity Analysis v2.3; three independent measurements; details: both partners purified
T4 construct: The fluorescent partner of the MST; Details are in the supplemental materials and methods
T4 sequence (looked up): T1 sequence (Q08050 1-138 isoform Q08050-2)

- KD, binding affinity to FOXM1_1-138 (FOXM1_1-138 [1]): unmeasurable
Molecule: P5mut: P5 with three residues mutated (L721A, I723A, S724A) (LDTMNDSLSKILADAAFPGL; also: conjugated to TAT cell-penetrating sequence (as parent P5))

- Kd [3]: 43.1 µM
B3: P5 (peptide)
chain: LDTMNDSLSKILLDISFPGL
modifications: also: conjugated to TAT cell-penetrating sequence

Further lines, the molecule ahead of its results:

Molecule: P5: the sequence 709-728aa of FOXM1, 20-mer conjugated with TAT cell-penetrating sequence; natural parent peptide of M1-20
- interaction with endogenous FOXM1 (pull-down) (endogenous FOXM1): interacted with endogenous FOXM1 with variable affinities
- inhibition of MDA-MB-231 cells in the P1-P9 library screen (MDA-MB-231 cells): significantly inhibited MDA-MB-231 breast cancer cells in a dose-dependent manner
- binding to recombinant FOXM1_1-138 (pull-down) (FOXM1_1-138 [2]): bind to recombinant GST-FOXM1_1-138 protein

B1: FAM-labeled FOXM1 EMSA probe (dsDNA)
DNA 1: TTTGTTTATTTGTTTGTTTATTTG
DNA 2: CAAATAAACAAACAAATAAACAAA
- binding result (His-FOXM1): binds

B2: M1-20 (peptide)
chain: [dL]G[dP][dF][dS][dI][dD][dL][dL][dI][dK][dS][dL][dS][dD][dN][dM][dT][dD][dL]
- Kd [3]: 5.66 µM

B4: M1-20mut (peptide)
chain: [dL]G[dP][dF][dA][dA][dD][dA][dL][dI][dK][dS][dL][dS][dD][dN][dM][dT][dD][dL]
- Kd [3]: 386 µM
